In article PMC5581011:
Read-outs that look alike come from different tables or passages of the source.

Tests used:
[1] = target: farletuzumab, humanized IgG1 monoclonal antibody to folate receptor alpha (human (humanized IgG1)); test: ELISA; unlabeled farletuzumab incubated alone or with sCA125 or HSA, probed with biotinylated CD16a, CD32a or CD64a; percent inhibition of Fc receptor binding compared to control
[2] = target: farletuzumab, humanized IgG1 monoclonal antibody to folate receptor alpha (human (humanized IgG1)); test: as above; remark: listed apart in the source
[3] = target: rituximab; test: ELISA; data not shown; rituximab and gimsilumab with sCA125, binding of CD16a-biotin
[4] = target: gimsilumab (human); test: as above
Chain of gimsilumab (human) (heavy, as listed by the source, chain 1 of 2): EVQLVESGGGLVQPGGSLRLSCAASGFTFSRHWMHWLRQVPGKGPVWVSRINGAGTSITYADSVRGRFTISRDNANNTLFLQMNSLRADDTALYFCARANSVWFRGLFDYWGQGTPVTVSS
Chain of gimsilumab (human) (light, as listed by the source, chain 2 of 2): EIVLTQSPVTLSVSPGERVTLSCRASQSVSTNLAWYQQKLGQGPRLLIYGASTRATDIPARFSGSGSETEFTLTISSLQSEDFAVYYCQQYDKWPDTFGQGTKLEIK

[5] = target: mesothelin on CHO-MSLN cells (UniProt Q13421); test: absorption (depletion) of sCA125 on cells; sCA125 preparation absorbed on CHO-MSLN cells or CHO-K1 parental cells; what is left in the supernatant
Chain of UniProt Q13421 (Q13421 other isoform, or with tags, fused parts or gaps): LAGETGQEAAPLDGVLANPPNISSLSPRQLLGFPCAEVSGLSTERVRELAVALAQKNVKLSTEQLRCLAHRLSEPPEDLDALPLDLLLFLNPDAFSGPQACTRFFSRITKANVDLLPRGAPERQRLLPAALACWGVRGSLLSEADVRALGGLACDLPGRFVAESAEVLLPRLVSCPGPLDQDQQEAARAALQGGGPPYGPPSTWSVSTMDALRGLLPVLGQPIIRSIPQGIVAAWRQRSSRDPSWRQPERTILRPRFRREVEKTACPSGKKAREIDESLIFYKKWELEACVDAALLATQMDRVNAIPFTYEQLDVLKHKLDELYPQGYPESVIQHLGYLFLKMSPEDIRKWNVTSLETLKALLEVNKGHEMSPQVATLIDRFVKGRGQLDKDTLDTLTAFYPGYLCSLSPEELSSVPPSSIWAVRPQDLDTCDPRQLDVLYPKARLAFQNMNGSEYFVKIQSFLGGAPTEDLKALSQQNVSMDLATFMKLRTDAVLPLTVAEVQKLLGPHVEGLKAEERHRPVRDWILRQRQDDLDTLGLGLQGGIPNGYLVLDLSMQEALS

Chain of farletuzumab, humanized IgG1 monoclonal antibody to folate receptor alpha (human (humanized IgG1)) (heavy, as listed by the source, chain 1 of 2): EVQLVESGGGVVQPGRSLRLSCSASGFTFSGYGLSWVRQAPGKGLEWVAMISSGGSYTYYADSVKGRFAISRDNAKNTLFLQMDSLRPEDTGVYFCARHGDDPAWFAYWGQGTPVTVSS
Chain of farletuzumab, humanized IgG1 monoclonal antibody to folate receptor alpha (human (humanized IgG1)) (light, as listed by the source, chain 2 of 2): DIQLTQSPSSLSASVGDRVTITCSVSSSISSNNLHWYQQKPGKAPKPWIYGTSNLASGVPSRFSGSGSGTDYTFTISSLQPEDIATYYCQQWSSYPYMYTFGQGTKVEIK

soluble CA125 (sCA125), tumor-shed antigen CA125/MUC16 (from UniProt Q8WXI7 1-14507) (natural protein)
percent inhibition of CD16a-biotin binding to farletuzumab [1]: 38 to 50%
percent inhibition of CD16a-biotin binding to farletuzumab [2]: 46%
percent inhibition of CD32a-biotin binding to farletuzumab [2]: 12%
percent inhibition of CD16a-biotin binding to the antibody [3]: < 50%
percent inhibition of CD16a-biotin binding to the antibody [4]: < 50%
percent of sCA125 removed by absorption on CHO-MSLN cells [5]: 98%
